No end group written: not given here.
Key:
[1] = relative to native protein; cited from earlier work
[2] = Serum half-life after intravenous injection into mice; type: in vivo; settings: for serum half-life: mice, intravenous injection
Experimental: uPA1-48 was produced in yeast, purified and concentrated into PBS. When produced in yeast, uPA1-48 lacks a fucosylation which is present when the protein is expressed in mammalian cells. The purified protein was injected intravenously into mice. Blood samples were collected at various time points, and the amount of uPA1-48 present in each sample was determined.
Pharmaceutical preparations comprising the conjugates of uPA1-48 and PEG were injected intravenously into mice. Blood samples were collected at various time points, and the amount of conjugate present in the blood was determined for each time point.

[3] = Pharmacokinetics after single IV bolus or SC dose in cynomologous monkeys (active protein measured by receptor binding activity); type: in vivo; settings: for t1/2: functional half-life
Experimental: As above, blood samples were collected at various time points, and the amount of conjugate present in the blood was determined for each time point. The method measures the receptor binding activity instead of just the total protein present; thus the amount of protein measured as a function of time represents the active protein, and the measured half-life represents functional half-life. The data is shown in Table 1, and a graph illustrating plasma disposition of PEG hu1-48 over time is included in FIG. 1.

uPAR = uPAR (Homo sapiens, UniProt Q03405); test: uPAR receptor binding activity (method of Goodson et al.); settings: for IC50: uPAR receptor binding
Sequence of uPAR (Q03405 23-335): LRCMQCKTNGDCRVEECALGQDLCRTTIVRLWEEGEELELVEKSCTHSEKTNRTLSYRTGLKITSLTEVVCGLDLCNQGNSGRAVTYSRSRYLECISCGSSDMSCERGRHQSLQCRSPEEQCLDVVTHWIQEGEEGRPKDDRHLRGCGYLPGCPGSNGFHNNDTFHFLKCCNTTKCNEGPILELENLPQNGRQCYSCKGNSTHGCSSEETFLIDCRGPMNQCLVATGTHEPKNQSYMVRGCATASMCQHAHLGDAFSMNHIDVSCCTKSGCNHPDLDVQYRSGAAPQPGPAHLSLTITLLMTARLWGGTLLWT

[4] = system: MDA MB231 cells (human breast carcinoma); test: Breast carcinoma MDA MB231 subcutaneous tumor growth in NOD/Ltz mice; type: in vivo; settings: for tumor growth reduced: vs vehicle control at 9 weeks, p=0.05
Experimental: Thirty NOD/Ltz mice were injected subcutaneously with 2×10^6 MDA MB231 cells (human breast carcinoma) on day 0. The mice were divided into three groups of 10 mice each, and the treatment of the three groups of mice began on day 1. Twice every week, group 1 was subcutaneously injected with 30 μg PEG hu1-48 (20 kD PEG), group 2 was subcutaneously injected with 300 μg PEG hu1-48 (20 kD PEG), and group 3 was subcutaneously injected with the vehicle (PBS). Treatment was continued for 9 weeks. The primary tumor volume (mm^3) was measured three times per week for 12 weeks, and the experiment was terminated when mean tumor volume in vehicle control group exceeded 2000 mm^3.

[5] = system: PC-3 mm2 cells (human prostate carcinoma); test: Human prostate carcinoma PC-3 mm2 orthotopic tumor growth in nude mice; type: in vivo; settings: 300 μg SC twice per week for 3 weeks, vs vehicle control
Experimental: The prostates of 18 nude mice were injected with 1×10^5 PC-3 mm2 cells (human prostate carcinoma) on day 0. The mice were divided into two groups of nine mice each, and treatment was initiated on day 3 and continued for 3 weeks. Twice per week, the mice of group 1 received 300 μg PEG hu1-48 (20 kD PEG) by subcutaneous administration, and the mice of group 2 received vehicle only by subcutaneous administration. Three weeks after the implantation of the human prostate carcinoma cells, the prostates of the mice were excised and weighed to determine effects of treatment on the primary tumor growth.

[6] = system: KM12 L4A cells (human colorectal adenocarcinoma); test: Colon cancer tumor growth and liver metastases, intrasplenic KM12 L4A in nude mice; type: in vivo; settings: 250 μg BID SC five times per week, 4 weeks
Experimental: Twenty 10 week old Nude male mice were injected intrasplenically with 1×10^6 KM12 L4A cells (human colorectal adenocarcinoma) on day 0. The mice were divided into two groups, and treatment was initiated on day 1 post-implantation and continued for 4 weeks. Group 1, consisting of 10 mice, were subcutaneously injected five times per week with PEG hu1-48 (20 kD PEG) and 250 μg BID while group 2 mice acted as the control and were injected with vehicle only. The animals were sacrificed all 5 weeks, and the spleens of the animals from each group were weighed to determine primary tumor burden (FIG. 4A). The livers were weighed to determine metastatic tumor burden, and were scored by histological examination for incidence of metastases (FIG. 4B). […] For the purposes of comparison, the average splenic weight for mice in this age group is about 240 mg.

[7] = system: KM12 L4A cells (human colorectal carcinoma cancer with high metastatic potential); test: Liver metastases in post-resection colorectal carcinoma model (KM12 L4A, spleen removed); type: in vivo, mice; settings: 1000 μg SC twice per week, vs vehicle
Experimental: Thirty male Nu/Nu mice were injected intrasplenically with 0.5×10^6 KM12 L4A cells (human colorectal carcinoma cancer with high metastatic potential), and the spleens of all the mice were removed 3 days after implantation of the KM12 L4A cells. The mice were divided into two treatment groups, and treatment was began 6 days after implantation. The first group of 15 mice received subcutaneous administrations of 1000 μg PEG hu1-48(20 kD PEG) twice per week, and the second group of 15 mice received saline vehicle only and served as the control group. The experiment was terminated 27 days after implantation of the KM12 L4A cells, and the weight of the livers were determined and histologically scored for metastatic foci.

## IL-8/PEG20 kD conjugate: literature conjugate of IL-8 with PEG20 kD (Gaertner and Offord 1996)
[1]
  change in half-life on conjugation to PEG20 kD: no change

## PEG20 kD to IL-1ra: literature conjugate of PEG20 kD with IL-1ra (Gaertner and Offord 1996)
[1]
  change in half-life on conjugation to PEG20 kD: almost seven-fold increase

## uPA1-48 /PEG3.4 kD conjugate: uPA1-48 N-terminal aldehyde coupled to PEG hydrazide of nominal average molecular weight 3.4 kD ({PEG 3.4 kDa hydrazone}-SNELHQVPSNCDCLNGGTCVSNKYFSNIHWCNCPKKFGGQHCEIDKSK; cysteine pairing not given here; UniProt P00749 21-68, looked up, fragment)
[2]
  serum half-life: 0.2 h

## uPA1-48/PEG5 kD conjugate: uPA1-48 N-terminal aldehyde coupled to PEG hydrazide of nominal average molecular weight 5 kD ({PEG 5 kDa hydrazone}-SNELHQVPSNCDCLNGGTCVSNKYFSNIHWCNCPKKFGGQHCEIDKSK; cysteine pairing not given here; UniProt P00749 21-68, looked up, fragment)
[2]
  serum half-life: 0.733 h

## uPA1-48/PEG20 kD conjugate: uPA1-48 N-terminal aldehyde coupled to PEG hydrazide of nominal average molecular weight 20 kD ({PEG 20 kDa hydrazone}-SNELHQVPSNCDCLNGGTCVSNKYFSNIHWCNCPKKFGGQHCEIDKSK; cysteine pairing not given here; UniProt P00749 21-68, looked up, fragment)
[2]
  serum half-life: 2.17 h
[2]; relative to unmodified uPA1-48, mice
  increase in serum half-life: 13 fold
[3]; monkey F67-344F, IV, 10 mg/kg
  t1/2: 6.9 h
  AUC: 3297918 nM·min
  CL: 0.6 mL/min/kg
  Cmax: 19.143 µM
  F: 100%
  MRT: 7.4 h
  Tmax: 0 h
  Vss: 0.252 L/kg
[3]; monkey F67-344F, SC, 10 mg/kg
  t1/2: 23 h
  AUC: 3803604 nM·min
  Cmax: 2.596 µM
  F: 115%
  MRT: 31 h
  Tmax: 8 h
[3]; monkey F7238F, IV, 10 mg/kg
  t1/2: 7.6 h
  AUC: 3002085 nM·min
  CL: 0.6 mL/min/kg
  Cmax: 30.564 µM
  F: 100%
  MRT: 6.6 h
  Tmax: 0 h
  Vss: 0.249 L/kg
[3]; monkey F7238F, SC, 10 mg/kg
  t1/2: 26 h
  AUC: 3057502 nM·min
  Cmax: 2.155 µM
  F: 101%
  MRT: 28 h
  Tmax: 4 h
[3]; monkey F7281F, IV, 8.8 mg/kg
  t1/2: 6.4 h
  AUC: 1987996 nM·min
  CL: 0.8 mL/min/kg
  Cmax: 19.199 µM
  F: 100%
  MRT: 5.1 h
  Tmax: 0 h
  Vss: 0.255 L/kg
[3]; monkey F7281F, SC, 10 mg/kg
  t1/2: 14 h
  AUC: 2337888 nM·min
  Cmax: 1.126 µM
  F: 103%
  MRT: 31 h
  Tmax: 8 h
uPAR; relative to uPA1-48, uPAR binding
  decrease in biological activity: four-fold
uPAR
  IC50: 1 nM
[4]; 30 μg SC twice every week
  tumor growth reduced: 77%
[4]; 300 μg SC twice every week
  tumor growth reduced: 98%
[4]; 300 μg group observed additional 3 weeks, tumors evident by day 84
  effect after treatment was stopped (day 63): cytostatic effect
[5]
  reduction in primary tumor growth (prostate weight): ~57%
[6]; 6 control mice had metastases, p<0.005
  incidence of liver metastases: no observed metastases
[6]; of 10 mice
  mice with visible tumors in the spleen: 7 mice
[6]; ±113, control 641 mg, normal about 240 mg
  average spleen weight: 269 mg
[7]; day 27
  overall liver tumor burden: trend toward a reduction
[7]; p value <0.05, day 27
  metastases to the liver: significantly reduced metastases to the liver

## uPA1-48/PEG25 kD conjugate: uPA1-48 N-terminal aldehyde coupled to PEG hydrazide of nominal average molecular weight 25 kD ({PEG 25 kDa hydrazone}-SNELHQVPSNCDCLNGGTCVSNKYFSNIHWCNCPKKFGGQHCEIDKSK; cysteine pairing not given here; UniProt P00749 21-68, looked up, fragment)
[2]
  serum half-life: 4.62 h

## uPA1-48/PEG50 kD dimeric conjugate: a uPA1-48 molecule conjugated at each end of PEG50 kD (SNELHQVPSNCDCLNGGTCVSNKYFSNIHWCNCPKKFGGQHCEIDKSK; cysteine pairing not given here; also: dimer: one uPA1-48 conjugated at each end of PEG 50 kDa, site not given here; UniProt P00749 21-68, looked up, fragment)
[2]
  serum half-life: 4.8 h

## uPA1-48: catalytically inactive protein comprising the first 48 amino acids of human uPA (EGF-like domain), produced in yeast (SNELHQVPSNCDCLNGGTCVSNKYFSNIHWCNCPKKFGGQHCEIDKSK; UniProt P00749 21-68, looked up, fragment)
[2]
  serum half-life: approximately 10 minutes
uPAR
  IC50: 0.25 nM
